This note sets out measurements from patent publication US20060194720A1 (SANWA KAGAKU KENKYUSHO, published 2006).

Where no end group is shown, it is not given here.

For the experiment, the target named is human GLP-1 receptor (human, UniProt P43220 24-463). Kind of experiment: cell-based or functional assay.

Consider HSEGTFTSDVSSYLEGQAAKEFIAWLVKGKKKKKKKR-NH2 [[Ser^8]-GLP-1 (7-35)-Lys-Lys-Lys-Lys-Lys-Lys-Lys-Arg-NH2], for which the “Cyclic AMP-producing activity, relative to naturally occurring GLP-1 (=100%), at 1 × 10^-10 M” value came out at 55.6%; the “Cyclic AMP-producing activity, relative to naturally occurring GLP-1 (=100%), at 1 × 10^-11 M” value came to 8.8%; the “Cyclic AMP-producing activity, relative to naturally occurring GLP-1 (=100%), at × 10^-9 M” value was determined as 92.6%.

On to HSEGTFTSDVSSYLEGQAAKEFIAWLVKGKKKKKR-NH2 [[Ser^8]-GLP-1 (7-35)-Lys-Lys-Lys-Lys-Lys-Arg-NH2], for which the “Cyclic AMP-producing activity, relative to naturally occurring GLP-1 (=100%), at 1 × 10^-10 M” value came to 55.3%; the “Cyclic AMP-producing activity, relative to naturally occurring GLP-1 (=100%), at 1 × 10^-11 M” value amounted to 7.9%; the “Cyclic AMP-producing activity, relative to naturally occurring GLP-1 (=100%), at × 10^-9 M” value turned out to be 63.4%.

In the case of HSEGTFTSDVSSYLEGQAAKEFIAWLVKGKKKR-NH2 [[Ser^8]-GLP-1 (7-35)-Lys-Lys-Lys-Arg-NH2], the “Cyclic AMP-producing activity, relative to naturally occurring GLP-1 (=100%), at 1 × 10^-10 M” value stood at 96.6%; the “Cyclic AMP-producing activity, relative to naturally occurring GLP-1 (=100%), at 1 × 10^-11 M” value was found to be 45%; the “Cyclic AMP-producing activity, relative to naturally occurring GLP-1 (=100%), at × 10^-9 M” value worked out at 86.7%.

Turning to HSEGTFTSDVSSYLEGQAAKEFIAWLVKGRRR-NH2 [[Ser^8]-GLP-1 (7-35)-Arg-Arg-Arg-NH2], the “Cyclic AMP-producing activity, relative to naturally occurring GLP-1 (=100%), at 1 × 10^-10 M” value was 95.5%; the “Cyclic AMP-producing activity, relative to naturally occurring GLP-1 (=100%), at 1 × 10^-11 M” value was found to be 56.4%; the “Cyclic AMP-producing activity, relative to naturally occurring GLP-1 (=100%), at × 10^-9 M” value was 91.2%.

For the molecule HSEGTFTSDVSSYLEGQAAKEFIAWLVKGRRRRRRR-NH2 [[Ser^8]-GLP-1 (7-35)-Arg-Arg-Arg-Arg-Arg-Arg-Arg-NH2], the “Cyclic AMP-producing activity, relative to naturally occurring GLP-1 (=100%), at 1 × 10^-10 M” value was found to be 81.1%; the “Cyclic AMP-producing activity, relative to naturally occurring GLP-1 (=100%), at 1 × 10^-11 M” value came to 64.9%; the “Cyclic AMP-producing activity, relative to naturally occurring GLP-1 (=100%), at × 10^-9 M” value was 80.6%.

Take HSEGTFTSDVSSYLEGQAAKEFIAWLVKGRRRR-NH2 [[Ser^8]-GLP-1 (7-35)-Arg-Arg-Arg-Arg-NH2]: the “Cyclic AMP-producing activity, relative to naturally occurring GLP-1 (=100%), at 1 × 10^-10 M” value amounted to 75.6%; the “Cyclic AMP-producing activity, relative to naturally occurring GLP-1 (=100%), at 1 × 10^-11 M” value is -17%; the “Cyclic AMP-producing activity, relative to naturally occurring GLP-1 (=100%), at × 10^-9 M” value came out at 102%.

Regarding HSEGTFTSDVSSYLEGQAAKEFIAWLVKGKKR-NH2 [[Ser^8]-GLP-1 (7-35)-Lys-Lys-Arg-NH2], the “Cyclic AMP-producing activity, relative to naturally occurring GLP-1 (=100%), at 1 × 10^-10 M” value came to 88.9%; the “Cyclic AMP-producing activity, relative to naturally occurring GLP-1 (=100%), at 1 × 10^-11 M” value came to 36.2%; the “Cyclic AMP-producing activity, relative to naturally occurring GLP-1 (=100%), at × 10^-9 M” value worked out at 81.6%.

In the case of HSEGTFTSDVSSYLEGQAAKEFIAWLVKGRRRRRR-NH2 [[Ser^8]-GLP-1 (7-35)-Arg-Arg-Arg-Arg-Arg-Arg-NH2], the “Cyclic AMP-producing activity, relative to naturally occurring GLP-1 (=100%), at 1 × 10^-10 M” value was 48.6%; the “Cyclic AMP-producing activity, relative to naturally occurring GLP-1 (=100%), at 1 × 10^-11 M” value is 54.3%; the “Cyclic AMP-producing activity, relative to naturally occurring GLP-1 (=100%), at × 10^-9 M” value stood at 75.6%.

Take HSEGTFTSDVSSYLEGQAAKEFIAWLVKGR-NH2 [[Ser^8]-GLP-1 (7-35)-Arg-NH2]: the “Cyclic AMP-producing activity, relative to naturally occurring GLP-1 (=100%), at 1 × 10^-10 M” value came out at 111%; the “Cyclic AMP-producing activity, relative to naturally occurring GLP-1 (=100%), at 1 × 10^-11 M” value came out at 97.9%; the “Cyclic AMP-producing activity, relative to naturally occurring GLP-1 (=100%), at × 10^-9 M” value was found to be 83.6%.

Turning to HSEGTFTSDVSSYLEGQAAKEFIAWLVKGRRRRRRRRR-NH2 [[Ser^8]-GLP-1 (7-35)-Arg-Arg-Arg-Arg-Arg-Arg-Arg-Arg-Arg-NH2], the “Cyclic AMP-producing activity, relative to naturally occurring GLP-1 (=100%), at 1 × 10^-10 M” value amounted to 87.4%; the “Cyclic AMP-producing activity, relative to naturally occurring GLP-1 (=100%), at 1 × 10^-11 M” value was 74.5%; the “Cyclic AMP-producing activity, relative to naturally occurring GLP-1 (=100%), at × 10^-9 M” value was 95.9%.

Regarding HSEGTFTSDVSSYLEGQAAKEFIAWLVKGKR-NH2 [[Ser^8]-GLP-1 (7-35)-Lys-Arg-NH2], the “Cyclic AMP-producing activity, relative to naturally occurring GLP-1 (=100%), at 1 × 10^-10 M” value is 113%; the “Cyclic AMP-producing activity, relative to naturally occurring GLP-1 (=100%), at 1 × 10^-11 M” value was determined as 100%; the “Cyclic AMP-producing activity, relative to naturally occurring GLP-1 (=100%), at × 10^-9 M” value was 80.5%.

With HSEGTFTSDVSSYLEGQAAKEFIAWLVKGRKK-NH2 [[Ser^8]-GLP-1 (7-35)-Arg-Lys-Lys-NH2], the “Cyclic AMP-producing activity, relative to naturally occurring GLP-1 (=100%), at 1 × 10^-10 M” value is 104%; the “Cyclic AMP-producing activity, relative to naturally occurring GLP-1 (=100%), at 1 × 10^-11 M” value came to 53.2%; the “Cyclic AMP-producing activity, relative to naturally occurring GLP-1 (=100%), at × 10^-9 M” value is 88.8%.

As for HSEGTFTSDVSSYLEGQAAKEFIAWLVKGKKKKKKKKKKR-NH2 [[Ser^8]-GLP-1 (7-35)-Lys-Lys-Lys-Lys-Lys-Lys-Lys-Lys-Lys-Lys-Arg-NH2], the “Cyclic AMP-producing activity, relative to naturally occurring GLP-1 (=100%), at 1 × 10^-10 M” value came out at 20.8%; the “Cyclic AMP-producing activity, relative to naturally occurring GLP-1 (=100%), at 1 × 10^-11 M” value stood at 7.5%; the “Cyclic AMP-producing activity, relative to naturally occurring GLP-1 (=100%), at × 10^-9 M” value was determined as 55.4%.

Turning to HSEGTFTSDVSSYLEGQAAKEFIAWLVKGRRRRR-NH2 [[Ser^8]-GLP-1 (7-35)-Arg-Arg-Arg-Arg-Arg-NH2], the “Cyclic AMP-producing activity, relative to naturally occurring GLP-1 (=100%), at 1 × 10^-10 M” value was found to be 64.7%; the “Cyclic AMP-producing activity, relative to naturally occurring GLP-1 (=100%), at 1 × 10^-11 M” value is 34%; the “Cyclic AMP-producing activity, relative to naturally occurring GLP-1 (=100%), at × 10^-9 M” value came out at 106%.
